Assays:
[1] = biological target: T1, human carbonic anhydrase IX (CAIX) (human, UniProt Q16790 38-414); assay: SPR (Biacore T200), multicycle kinetics; purified antibody captured on Protein G chip, CAIX as analyte
Experimental: (§1) The purified antibodies were diluted to a concentration of 1 μg/ml in HBS-P+. […] Following capture, the surface was allowed to stabilise. Kinetic data was obtained using a flow rate of 30 μl/min to minimise any potential mass transfer effects. For the kinetics analysis, carbonic anhydrase IX (CAIX) was used. Multiple repeats of the blank (CAIX) and a repeat of a single concentration of the analyte were programmed into the kinetic run in order to check the stability of both the surface and analyte over the kinetic cycles. For kinetic analysis, a two-fold dilution range was selected from 50 nM to 0.078 nM CAIX. The association phase of CAIX was monitored for 280 seconds and the dissociation phase was monitored for 300 seconds. Regeneration of the Protein G surface was conducted using an injection of 10 mM glycine-HCL pH 1.5 followed by an injection of 10 mM glycine-HCL pH 1.5 containing 0.5% P20. The signal from the reference channel Fc1 was subtracted from that of Fc2, Fc3 and Fc4 to correct for differences in non-specific binding to a reference surface, and a global Rmax parameter was used in the 1-to-1 binding model. The relative KD was calculated by dividing the KD of the humanised variants by that of the chimeric antibody on the same chip.

[2] = biological target: T1, human carbonic anhydrase IX (CAIX); assay: Biacore multicycle kinetic analysis (conclusion of Example 1)
Experimental: as §1

[3] = biological target: T1, human carbonic anhydrase IX (CAIX); assay: SPR (Biacore T200), multicycle kinetics; purified CHO-expressed antibody captured on Protein G chip, CAIX as analyte
Experimental: as §1

[4] = biological target: T1, human carbonic anhydrase IX (CAIX); assay: competition ELISA on coated CAIX; competitor: biotinylated chimeric Girentuximab IgG1
Experimental: CAIX was diluted in 1×PBS to 0.5 μg/ml and 100 μl/well was coated overnight at 4° C. on a 96-well ELISA plate. The following day, the plate was washed 3× with 1×PBS/0.05% Tween (PBST) and blocked with 200 μl of 2% BSA/PBS for one hour at room temperature.
After washing the plate 3× with PBS-T, 100 μl of chimeric/test antibody mix was added to the ELISA plate.
For colour development, the plate was washed 3× with PBS-T following which 100 μl of TMB substrate was added and incubated for approximately five minutes at room temperature. The reaction was stopped with 50 μl of 3.0 M hydrochloric acid and absorbance was read immediately using a Dynex plate reader at 450 nm.

[5] = biological target: T1, human carbonic anhydrase IX (CAIX); assay: SPR (Biacore T200), single cycle kinetics; antibody in HEK EBNA supernatant captured on Protein G chip, CAIX as analyte
Experimental: All single cycle kinetic experiments were run at 25° C. with HBS-P+ running buffer (pH 7.4) (GE Healthcare, Little Chalfont, UK). For direct comparison, all antibodies were captured on a Protein G chip (GE Healthcare, Uppsala, Sweden).
Antibodies were diluted in running buffer to a final concentration of 0.5 μg/ml, based on concentrations assessed by ELISA titre. At the start of each cycle, antibodies were loaded onto Fc2, Fc3 and Fc4 of the Protein G chip (GE Healthcare, Little Chalfont, UK). IgGs were captured at a flow rate of 10 μl/min to give an immobilisation level (RL) of ˜79 RU, the theoretical value to obtain an Rmax of ˜50 RU. The surface was then allowed to stabilise. Single cycle kinetic data was obtained with Carbonic Anhydrase IX (CAIX, Stratech, Newmarket, UK) as the analyte at a flow rate of 30 μl/min to minimise any potential mass transport limitations. […] The signal from the reference channel Fc1 (no antibody) was subtracted from that of Fc2, Fc3 and Fc4 to correct for differences in non-specific binding to a reference surface. […] The association phase for the four injections of increasing concentrations of CAIX was monitored for 200 seconds each time and a single dissociation phase was measured for 300 seconds following the last injection of CAIX. Regeneration of the Protein G surface was conducted using an injection of 10 mM glycine-HCL pH 1.5 followed by an injection of 10 mM glycine-HCL pH 1.5 containing 0.5% P20.

[6] = biological target: T1, human carbonic anhydrase IX (CAIX); assay: Biacore multicycle analysis and competition ELISA (conclusion of Example 1)

B1: Girentuximab humanised VH4/Vκ3 IgG1 (antibody)
heavy: not shown
light: DIQMTQSPSSLSASVGDRVTITCKASQNVVSAVAWYQQKPGQAPRLLIYSASNRYTGVPDRFSGSGSGTDFTLTISSLQAEDLADYFCQQYSNYPWTFGGGTKVEIKRTVAAPSVFIFPPSDEQLKSGTASVVCLLNNFYPREAKVQWKVDNALQSGNSQESVTEQDSKDSTYSLSSTLTLSKADYEKHKVYACEVTHQGLSSPVTKSFNRGEC
≤ 2 fold: relative KD (KD of the variant divided by KD of the chimeric antibody on the same chip) [1] | binding relative to VH0/Vκ0 with the same IgG backbone [2] | relative KD (KD of the variant divided by KD of the chimeric antibody with the same IgG constant domain) [3] | relative IC50 (IC50 of the variant divided by IC50 of the Girentuximab chimeric IgG1 antibody on the same plate) [4] | relative KD (against the reference chimeric VH0/Vκ0 IgG1) [5] | binding relative to the IgG1 chimeric antibody [6]

B2: Girentuximab humanised VH3/Vκ2 IgG1 (antibody)
heavy: not shown
light: DIVMTQSPSSLSASVGDRVTITCKASQNVVSAVAWYQQKPGQAPRLLIYSASNRYTGVPDRFTGSGSGTDFTLTISSLQAEDLADYFCQQYSNYPWTFGGGTKVEIKRTVAAPSVFIFPPSDEQLKSGTASVVCLLNNFYPREAKVQWKVDNALQSGNSQESVTEQDSKDSTYSLSSTLTLSKADYEKHKVYACEVTHQGLSSPVTKSFNRGEC
≤ 2 fold: relative KD (KD of the variant divided by KD of the chimeric antibody on the same chip) [1] | relative IC50 (IC50 of the variant divided by IC50 of the Girentuximab chimeric IgG1 antibody on the same plate) [4] | relative KD (against the reference chimeric VH0/Vκ0 IgG1) [5] | binding relative to the IgG1 chimeric antibody [6]

B3: Girentuximab humanised VH3/Vκ4 IgG1 (antibody)
heavy: not shown
light: DIQMTQSPSSLSASVGDRVTITCKASQNVVSAVAWYQQKPGQAPRLLIYSASNRYTGVPDRFSGSGSGTDFTLTISSLQAEDLADYYCQQYSNYPWTFGGGTKVEIKRTVAAPSVFIFPPSDEQLKSGTASVVCLLNNFYPREAKVQWKVDNALQSGNSQESVTEQDSKDSTYSLSSTLTLSKADYEKHKVYACEVTHQGLSSPVTKSFNRGEC
≤ 2 fold: relative KD (KD of the variant divided by KD of the chimeric antibody on the same chip) [1] | binding relative to VH0/Vκ0 with the same IgG backbone [2] | relative KD (KD of the variant divided by KD of the chimeric antibody with the same IgG constant domain) [3] | relative IC50 (IC50 of the variant divided by IC50 of the Girentuximab chimeric IgG1 antibody on the same plate) [4] | relative KD (against the reference chimeric VH0/Vκ0 IgG1) [5] | binding relative to the IgG1 chimeric antibody [6]

B4: Girentuximab humanised VH4/Vκ4 IgG1 (antibody)
heavy: not shown
light: DIQMTQSPSSLSASVGDRVTITCKASQNVVSAVAWYQQKPGQAPRLLIYSASNRYTGVPDRFSGSGSGTDFTLTISSLQAEDLADYYCQQYSNYPWTFGGGTKVEIKRTVAAPSVFIFPPSDEQLKSGTASVVCLLNNFYPREAKVQWKVDNALQSGNSQESVTEQDSKDSTYSLSSTLTLSKADYEKHKVYACEVTHQGLSSPVTKSFNRGEC
≤ 2 fold: relative KD (KD of the variant divided by KD of the chimeric antibody on the same chip) [1] | binding relative to VH0/Vκ0 with the same IgG backbone [2] | relative KD (KD of the variant divided by KD of the chimeric antibody with the same IgG constant domain) [3] | relative IC50 (IC50 of the variant divided by IC50 of the Girentuximab chimeric IgG1 antibody on the same plate) [4] | relative KD (against the reference chimeric VH0/Vκ0 IgG1) [5] | binding relative to the IgG1 chimeric antibody [6]

B5: Girentuximab humanised VH4/Vκ2 IgG1 (antibody)
heavy: not shown
light: DIVMTQSPSSLSASVGDRVTITCKASQNVVSAVAWYQQKPGQAPRLLIYSASNRYTGVPDRFTGSGSGTDFTLTISSLQAEDLADYFCQQYSNYPWTFGGGTKVEIKRTVAAPSVFIFPPSDEQLKSGTASVVCLLNNFYPREAKVQWKVDNALQSGNSQESVTEQDSKDSTYSLSSTLTLSKADYEKHKVYACEVTHQGLSSPVTKSFNRGEC
≤ 2 fold: relative KD (KD of the variant divided by KD of the chimeric antibody on the same chip) [1] | relative IC50 (IC50 of the variant divided by IC50 of the Girentuximab chimeric IgG1 antibody on the same plate) [4] | relative KD (against the reference chimeric VH0/Vκ0 IgG1) [5] | binding relative to the IgG1 chimeric antibody [6]

B6: Girentuximab humanised VH3/Vκ3 IgG1 (antibody)
heavy: not shown
light: DIQMTQSPSSLSASVGDRVTITCKASQNVVSAVAWYQQKPGQAPRLLIYSASNRYTGVPDRFSGSGSGTDFTLTISSLQAEDLADYFCQQYSNYPWTFGGGTKVEIKRTVAAPSVFIFPPSDEQLKSGTASVVCLLNNFYPREAKVQWKVDNALQSGNSQESVTEQDSKDSTYSLSSTLTLSKADYEKHKVYACEVTHQGLSSPVTKSFNRGEC
≤ 2 fold: relative KD (KD of the variant divided by KD of the chimeric antibody on the same chip) [1] | relative IC50 (IC50 of the variant divided by IC50 of the Girentuximab chimeric IgG1 antibody on the same plate) [4] | relative KD (against the reference chimeric VH0/Vκ0 IgG1) [5] | binding relative to the IgG1 chimeric antibody [6]

B7: Chimeric Girentuximab (VH0/Vκ0) IgG1 (H310A, H435Q) (antibody)
heavy: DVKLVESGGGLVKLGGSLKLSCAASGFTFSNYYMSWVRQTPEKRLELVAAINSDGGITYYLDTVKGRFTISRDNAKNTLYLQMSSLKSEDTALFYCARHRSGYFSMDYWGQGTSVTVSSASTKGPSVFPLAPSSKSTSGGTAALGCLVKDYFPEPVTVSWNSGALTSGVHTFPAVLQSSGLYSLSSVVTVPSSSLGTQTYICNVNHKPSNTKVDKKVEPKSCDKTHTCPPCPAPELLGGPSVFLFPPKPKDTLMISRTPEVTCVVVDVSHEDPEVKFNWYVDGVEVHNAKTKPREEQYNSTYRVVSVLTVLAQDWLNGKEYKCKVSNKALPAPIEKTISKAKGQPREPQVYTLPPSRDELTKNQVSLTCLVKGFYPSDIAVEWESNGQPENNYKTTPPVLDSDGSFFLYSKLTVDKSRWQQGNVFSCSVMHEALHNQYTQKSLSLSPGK
light: DIVMTQSQRFMSTTVGDRVSITCKASQNVVSAVAWYQQKPGQSPKLLIYSASNRYTGVPDRFTGSGSGTDFTLTISNMQSEDLADFFCQQYSNYPWTFGGGTKLEIKRTVAAPSVFIFPPSDEQLKSGTASVVCLLNNFYPREAKVQWKVDNALQSGNSQESVTEQDSKDSTYSLSSTLTLSKADYEKHKVYACEVTHQGLSSPVTKSFNRGEC
notes: Chimeric antibody on the FcRn-null IgG1 backbone; also called chimeric IgG1 (H310A, H435Q)
≤ 2 fold: relative KD (KD of the variant divided by KD of the chimeric antibody on the same chip) [1] | relative IC50 (IC50 of the variant divided by IC50 of the Girentuximab chimeric IgG1 antibody on the same plate) [4]

B8: Chimeric Girentuximab (VH0/Vκ0) IgG4 (S228P, L235E, H310A, H435Q) (antibody)
heavy: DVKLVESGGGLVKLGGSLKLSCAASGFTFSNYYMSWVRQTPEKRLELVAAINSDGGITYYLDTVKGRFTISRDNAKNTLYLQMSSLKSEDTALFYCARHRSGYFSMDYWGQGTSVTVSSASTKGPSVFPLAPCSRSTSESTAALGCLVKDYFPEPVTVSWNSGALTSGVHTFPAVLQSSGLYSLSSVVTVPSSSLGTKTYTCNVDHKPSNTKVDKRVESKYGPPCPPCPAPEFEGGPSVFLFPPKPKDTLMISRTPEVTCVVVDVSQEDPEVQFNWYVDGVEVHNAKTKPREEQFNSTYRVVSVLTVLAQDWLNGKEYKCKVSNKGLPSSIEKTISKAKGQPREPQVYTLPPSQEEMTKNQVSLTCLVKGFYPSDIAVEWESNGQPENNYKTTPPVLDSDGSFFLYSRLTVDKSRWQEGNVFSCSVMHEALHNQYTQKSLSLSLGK
light: DIVMTQSQRFMSTTVGDRVSITCKASQNVVSAVAWYQQKPGQSPKLLIYSASNRYTGVPDRFTGSGSGTDFTLTISNMQSEDLADFFCQQYSNYPWTFGGGTKLEIKRTVAAPSVFIFPPSDEQLKSGTASVVCLLNNFYPREAKVQWKVDNALQSGNSQESVTEQDSKDSTYSLSSTLTLSKADYEKHKVYACEVTHQGLSSPVTKSFNRGEC
notes: Chimeric antibody on the FcRn- and FcRγ-null IgG4 backbone; also called chimeric IgG4 (S228P, L235E, H310A, H435Q)
≤ 2 fold: relative KD (KD of the variant divided by KD of the chimeric antibody on the same chip) [1] | relative IC50 (IC50 of the variant divided by IC50 of the Girentuximab chimeric IgG1 antibody on the same plate) [4]

Reference: patent US20220331457A1 (TELIX INTERNATIONAL, published 2022)
